Results reported in publication PMC4170648, “Clinically used antirheumatic agent auranofin is a proteasomal deubiquitinase inhibitor and inhibits tumor growth” (Oncotarget, 2014).

Target: T1, HA-tagged ubiquitin-Vinyl Sulfone (UniProt P0CG48 1-76, vinyl sulfone (position not given))
T1 construct: ubiquitin, the mature cut product of a ubiquitin precursor, carrying a vinyl sulfone warhead; Commercial active-site probe; also called HA-UbVS; HA-Ub-VS; source: bought: Boston Biochem
Experiment: active-site-directed covalent labelling with HA-UbVS; purified 26S proteasomes (25 nM) incubated with HA-UbVS for 1 h at 37°C, boiled in reducing sample buffer, SDS-PAGE, HA immunoblot; without Aur, and after 2 μM Aur for 10 min (labelling reduced)
Settings: both partners purified

binding result: binds
B1: UCHL5 (enzyme, human, UniProt Q9Y5K5 1-329, looked up)
chain: MTGNAGEWCLMESDPGVFTELIKGFGCRGAQVEEIWSLEPENFEKLKPVHGLIFLFKWQPGEEPAGSVVQDSRLDTIFFAKQVINNACATQAIVSVLLNCTHQDVHLGETLSEFKEFSQSFDAAMKGLALSNSDVIRQVHNSFARQQMFEFDTKTSAKEEDAFHFVSYVPVNGRLYELDGLREGPIDLGACNQDDWISAVRPVIEKRIQKYSEGEIRFNLMAIVSDRKMIYEQKIAELQRQLAEEEPMDTDQGNSMLSAIQSEVAKNQMLIEEEVQKLKRYKIENIRRKHNYLPFIMELLKTLAEHQQLIPLVEKAKEKQNAKKAQETK
notes: UCHL5/Uch37, human, deubiquitinase associated with the 19S regulatory particle, present in purified 26S proteasomes; It stood in the assay as a component of the bought 26S proteasome and was resolved as a labelled band on SDS-PAGE; PDB 3RIS was used only for docking of the small molecule; also called UCHL5/Uch37; source: bought: Boston Biochem, as part of purified human 26S proteasomes
